Laboratory results reported in PMC10397321, “Energetic robustness to large scale structural fluctuations in a photosynthetic supercomplex” (Nature Communications, 2023).

B1: iron-stressed induced protein A (IsiA) (natural protein)
chain: not shown
notes: IsiA, iron-stressed induced protein A, Synechocystis sp; PCC 6803; six trans-membrane helices; model rebuilt from subunit X of PDB 6NWA; Each IsiA protomer coordinates 17 chlorophylls and 4 carotenoids; 18 copies form the ring around the PSI trimer; also called IsiA protomer; IsiA monomer; source: endogenous, purified as PSI-IsiA supercomplex from Synechocystis sp; PCC 6803 grown with low iron …

Tests used:
[1] = target: B1; assay: cryo-EM structure; native PSI3-IsiA18 supercomplex co-purified from Synechocystis sp. PCC 6803 membranes in DDM; 30 mM Tricine-NaOH pH 8, 75 mM NaCl, 0.02% DDM; 1.5 mg chlorophyll/ml; vitrified on holey carbon grids; C3 symmetry expansion and multibody refinement; settings: both partners purified
[2] = target: the molecule itself; assay: as above

binding result [1] | Binder | stoichiometry N [2]
binds | PsaF subunit of photosystem I (natural protein, Synechocystis sp. PCC 6803, UniProt P29256 24-165, looked up, PsaF, PSI subunit, Synechocystis sp; PCC 6803; Stood in the assay as a subunit of PSI; also called PsaF/J; PsaJ/F; source: endogenous, purified as part of the PSI-IsiA supercomplex from Synechocystis sp; PCC 6803 (DDM-solubilised membranes, DEAE column, sucrose gradients)) DDFANLTPCSENPAYLAKSKNFLNTTNDPNSGKIRAERYASALCGPEGYPHLIVDGRFTHAGDFLIPSILFLYIAGWIGWVGRSYLIEIRESKNPEMQEVVINVPLAIKKMLGGFLWPLAAVGEYTSGKLVMKDSEIPTSPR | –
– | B1 | 18
binds | MDGLKSFLSTAPVMIMALLTFTAGILIEFNRFYPDLLFHP (natural protein, Synechocystis sp. PCC 6803, UniProt Q55329 1-40, looked up, PsaJ, PSI subunit, Synechocystis sp; PCC 6803; Stood in the assay as a subunit of PSI; also called PsaF/J; PsaJ/F; source: endogenous, purified as part of the PSI-IsiA supercomplex from Synechocystis sp; PCC 6803 (DDM-solubilised membranes, DEAE column, sucrose gradients)) [PsaJ subunit of photosystem I] | –
